This experiment concerns the target Drosophila melanogaster imaginal morphogenesis protein-late 2 protein (Imp-L2) (Drosophila melanogaster) (UniProt Q09024). Description: cross-linking; Sulfo-SDA-modified ligand (about 100 μg, 10–20 nmol) incubated with recombinant Imp-L2 (76 μg, about 3 nmol) overnight at 4°C, irradiated at 365 nm for 5 min; SDS-PAGE, western blot with anti-IGF-1, tryptic digest of the excised band and LC-MS/MS (Links, StavroX). On the technique in general: A western blot detects proteins with antibodies after separation by electrophoresis.
Sequence of UniProt Q09024 (Q09024 26-267): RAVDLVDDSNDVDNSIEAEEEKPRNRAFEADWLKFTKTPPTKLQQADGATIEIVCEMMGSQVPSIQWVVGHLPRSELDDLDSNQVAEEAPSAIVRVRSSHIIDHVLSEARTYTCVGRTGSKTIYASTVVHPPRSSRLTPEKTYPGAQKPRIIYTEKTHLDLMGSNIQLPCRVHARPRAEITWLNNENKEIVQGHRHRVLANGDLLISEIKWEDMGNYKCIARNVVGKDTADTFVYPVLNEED

With “des(63-70)-IGF-1 (human IGF-1 lacking the C-terminal D domain amino acids PLKPAKSA, with an additional N-terminal Gly-1) (ligand)”, the percent of Imp-L2 crosslinked is 10 to 20%.

These data come from paper PMC6794382.
